B1: MAB-8_h_FabCys (Fab, V domains shown)
VH: EVQLVESGGGLVQPGGSLRLSCAASGFTFRSHYMTWVRQAPGKGLEWVANIDYEGTRTYYAESVKGRFTISRDNAKNSLYLQMNSLRAEDTAVYYCARGYSAEFAHRSGLDVWGQGTLVTVSS
VL: QSVLTQPPSASGTPGQRVTISCSGSSSNIGSNYVYWYQQLPGTAPKLLIYRNNQRPSGVPDRFSGSKSGTSASLAISGLRSEDEADYYCAAWDRHSHGAVFGGGTKLTVLG
notes: Tagless disulfide-bridged human FabCys produced in HEK293 cells; also called MAB-8 Fab-Cys
B2: MAB-7_h_FabCys (Fab, V domains shown)
VH: B1 VH with R30K, H32Y, T35S, E54Q, G55S, T56Q, R57H, T58A
VL: B1 VL
notes: Tagless disulfide-bridged human FabCys produced in HEK293 cells; also called MAB-7 Fab-Cys
B3: MAB-13_h_FabCys (Fab, V domains shown)
VH: B1 VH
VL: B1 VL with S31I
notes: Tagless disulfide-bridged human FabCys produced in HEK293 cells; also called MAB-13 Fab-Cys
B4: MAB-16_h_FabCys (Fab, V domains shown)
VH: B1 VH
VL: B1 VL with A91G, H95R, S96L
notes: Tagless disulfide-bridged human FabCys produced in HEK293 cells; also called MAB-16 Fab-Cys
B5: MAB-9_h_FabCys (Fab, V domains shown)
VH: B1 VH
VL: B1 VL with S31I, Q54I
notes: Tagless disulfide-bridged human FabCys produced in HEK293 cells; also called MAB-9 Fab-Cys
B6: MAB-12_h_FabCys (Fab, V domains shown)
VH: B1 VH
VL: B1 VL with S31A
notes: Tagless disulfide-bridged human FabCys produced in HEK293 cells; also called MAB-12 Fab-Cys
B7: MAB-1 (parental) (antibody, V domains shown)
VH: EVQLVESGGGLVQPGGSLRLSCAASGFTFSSYWMSWVRQAPGKGLEWVANIKQDGSEKYYVDSVKGRFTISRDNAKNSLYLQMNSLRAEDTAVYYCARGYSAEFAHRSGLDVWGQGTLVTVSS
VL: B1 VL with R94H, S96R, H97S
notes: also called MAB-1 IgG; parental antibody MAB-1

Substitutions are numbered along the chain they refer to. Some results are limits rather than exact numbers.

The results in this text go back to patent US20230357398A1 (MorphoSys, published 2023).

T4 sequence (P07766 23-207 limits assumed): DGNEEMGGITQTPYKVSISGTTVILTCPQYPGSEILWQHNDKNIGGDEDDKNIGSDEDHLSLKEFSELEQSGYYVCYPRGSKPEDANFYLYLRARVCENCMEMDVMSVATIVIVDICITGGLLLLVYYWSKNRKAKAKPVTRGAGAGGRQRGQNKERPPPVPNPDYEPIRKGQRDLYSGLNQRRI
T3 sequence (Q95LI5 22-198 limits assumed): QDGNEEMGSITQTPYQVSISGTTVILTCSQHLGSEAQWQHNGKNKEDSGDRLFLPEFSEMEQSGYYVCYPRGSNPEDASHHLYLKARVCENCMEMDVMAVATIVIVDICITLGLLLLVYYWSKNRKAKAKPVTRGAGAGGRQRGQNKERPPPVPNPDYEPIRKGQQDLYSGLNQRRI
T2 sequence (chain, as listed by the source limits assumed): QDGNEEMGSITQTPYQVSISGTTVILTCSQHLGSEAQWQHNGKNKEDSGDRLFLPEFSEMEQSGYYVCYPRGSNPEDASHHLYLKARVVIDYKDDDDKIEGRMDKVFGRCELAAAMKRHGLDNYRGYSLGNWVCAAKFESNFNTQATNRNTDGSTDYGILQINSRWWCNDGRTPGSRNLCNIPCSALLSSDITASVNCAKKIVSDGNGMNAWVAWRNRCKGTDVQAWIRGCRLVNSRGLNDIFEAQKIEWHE

In the first test the target is T1, Mature human CD3e(1-118)_FLAG-chLys_Avi (human).
T1 construct: also called human CD3 epsilon antigen
T1 sequence (chain, as listed by the source limits assumed): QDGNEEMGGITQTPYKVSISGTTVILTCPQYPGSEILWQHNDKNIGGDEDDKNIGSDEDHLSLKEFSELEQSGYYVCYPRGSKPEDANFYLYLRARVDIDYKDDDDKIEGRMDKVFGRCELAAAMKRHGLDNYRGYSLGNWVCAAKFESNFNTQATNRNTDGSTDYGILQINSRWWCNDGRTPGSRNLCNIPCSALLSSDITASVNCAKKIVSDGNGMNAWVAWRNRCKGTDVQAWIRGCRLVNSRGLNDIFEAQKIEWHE
Nature of the test: BLI (Octet HTX); FabCys captured on Fab-specific sensor, CD3e antigen as analyte; 1:1 model. The procedure:
(§1) Affinity determination by determining kinetic rate constants was performed on an Octet HTX (FortéBIO, Sartorius AG) instrument as described below.
(§2) The different Fab-Cys samples diluted in assay buffer (D-PBS, 0.05% (v/v) PS 20, 0.1% (w/v) BSA) were captured onto Fab-specific BLI sensors with a loading level of approx. 0.5 nm. […] A blank sample with assay buffer was included for referencing, i.e. correcting for dissociation of captured antibody. The association phase was recorded for 300 s, followed by a dissociation phase of 900 s. After each cycle, the biosensors were regenerated two times with 10 mM Glycine HCl pH 1.7 to remove bound ligand/antibody complex, while maintaining the integrity of the capture surface. Between regeneration steps, biosensors were washed with assay buffer for 20 s.
(§3) The sensorgrams were fitted using Octet Data Analysis Software 10.0 (FortéBio, Sartorius AG) to determine kₒₙ and koff rate constants (using a 1:1 binding model), which were used to calculate KD.
For orientation: Biolayer interferometry detects binding as a change in optical thickness at a sensor tip.
Turning to B1, the affinity, expressed as Kd, was 0.3 nM; the koff (as a rule, a measure of how fast the partners let go of each other) is 0.000258 s⁻¹; the kon (as a rule, the rate constant with which the complex forms) amounted to 802000 M⁻¹ s⁻¹.

In the case of B2, the equilibrium dissociation constant (Kd) – broadly, the free concentration of one partner at which half of the binding sites on the other are occupied at equilibrium, for simple one-to-one binding – was 1.3 nM; the off-rate constant (koff) is 0.000627 s⁻¹; the kon stood at 499000 M⁻¹ s⁻¹.

In turn, B3 registered a Kd of 0.2 nM, a koff of 0.000134 s⁻¹ and a kon of 705000 M⁻¹ s⁻¹.

The molecule B4 yielded a Kd of 0.3 nM, a koff of 0.000272 s⁻¹ and a kon of 852000 M⁻¹ s⁻¹.

Regarding B5, binding was put at a Kd of 0.2 nM, the koff was 0.000122 s⁻¹ and the kon came out at 724000 M⁻¹ s⁻¹.

For B6, binding was characterised by a dissociation constant (Kd) of 0.3 nM, the koff stood at 0.000188 s⁻¹ and the kon amounted to 650000 M⁻¹ s⁻¹.

The next test concerns the target T2, cyCD3e(1-109)_F-chLys_avi (cynomolgus monkey).
T2 construct: also called cynomolgus monkey CD3 epsilon antigen
The test is described as above. The procedure: as §1, §2, §3
B1 came in with a kon of 464000 M⁻¹ s⁻¹.

B2 gave a Kd of 0.4 nM, a koff of 0.000158 s⁻¹ and a kon of 370000 M⁻¹ s⁻¹.

The molecule B3 returned a kon of 413000 M⁻¹ s⁻¹.

Molecule B4 yielded a Kd of 0.2 nM, a koff of 7.92e-05 s⁻¹ and a kon of 478000 M⁻¹ s⁻¹.

Turning to B5, the kon came to 446000 M⁻¹ s⁻¹.

Molecule B6 had a kon of 445000 M⁻¹ s⁻¹.

The next test addresses T3, cynomolgus CD3 epsilon, cell surface expressed (cynomolgus monkey PBMCs) (cynomolgus monkey, UniProt Q95LI5 22-198).
T3 construct: On the cells CD3 epsilon is part of the native CD3/TCR complex; also called cyno CD3
As to the kind of experiment: flow cytometry on cynomolgus monkey PBMCs, IgG titration. In general terms: Flow cytometry measures light scatter and fluorescence of single cells or particles in a stream.
As for B7, the binding result is on record as “binds”.

For another test, the target named is T3, cynomolgus CD3 epsilon, cell surface …. As to the kind of experiment: flow cytometry (FACS) on cynomolgus PBMCs. The procedure:
(§4) Antibody staining was measured using a multiformat Flow Cytometer (NovoCyte, Agilent Technologies) and analyzed using NovoExpress software (Version 1.5.0). Lymphocytes were identified by morphological gating of forward and side scatters. EC₅₀ values were calculated using 4-parameter non-linear regression analysis in Prism software (GraphPad Software Inc., version 8.4.3).
As for B1, the EC50 (usually the concentration at which the effect is half-maximal) came to 3.2 nM.

In turn, B2 showed an EC50 of 3.7 nM.

On to B3, for which the EC50 turned out to be 5.2 nM.

For B4, the EC50 amounted to 2 nM.

B5 had a half-maximal effective concentration (EC50) of 4.7 nM.

In turn, B6 yielded an EC50 of 4.1 nM.

The target of a further test is T2, cyCD3e(1-109)_F-chLys_avi. Nature of the test: BLI (Octet HTX); FabCys captured on Fab-specific sensor, CD3e antigen as analyte; 1:1 model; less precise, dissociation at assay limit. As for the experimental part: as §1, §2, §3
Turning to B1, the Kd was about 0.1 nM.

B3 displayed a Kd of at most 0.1 nM.

On to B5, for which the Kd is at most 0.1 nM.

B6 returned a Kd of at most 0.1 nM.

A further test concerns the target T4, human CD3 epsilon, cell surface expressed (human PBMCs / human T cells) (human, UniProt P07766 23-207).
T4 construct: On the cells CD3 epsilon is part of the native CD3/TCR complex; also called CD3 on human PBMCs
Nature of the test: flow cytometry (FACS) on human PBMCs. The procedure: as §4
Consider B1, for which a half-maximal response (EC50) required 5.5 nM.

Molecule B2 came in with an EC50 of 6.1 nM.

On to B3, for which the concentration for a half-maximal effect (EC50) stood at 8.3 nM.

Molecule B4 displayed an EC50 of 3.3 nM.

The molecule B5 had an EC50 of 7.7 nM.

The molecule B6 yielded an EC50 of 5.7 nM.

For another test, the target named is T2, cyCD3e(1-109)_F-chLys_avi. As to the kind of experiment: BLI (Octet HTX); FabCys captured on Fab-specific sensor, CD3e antigen as analyte; 1:1 model; rate set to assay limit. As for the experimental part: as §1, §2, §3
As for B3, the koff is at most 5e-05 s⁻¹.

B5: the koff is at most 5e-05 s⁻¹.

B6 showed a koff of at most 5e-05 s⁻¹.

A further test deals with T2, cyCD3e(1-109)_F-chLys_avi. Nature of the test: BLI (Octet HTX); FabCys captured on Fab-specific sensor, CD3e antigen as analyte; 1:1 model; dissociation approaching assay limit. The procedure:
as §1, §2, §3
The molecule B1 gave an off-rate (koff) of about 5.07e-05 s⁻¹.
